In PMC5708776, “Crystal structure of a tripartite complex between C3dg, C-terminal domains of factor H and OspE of Borrelia burgdorferi” (PLoS ONE, 2017):

Target: T1, C3dg (residues 955 to 1303 of complement C3), C1010A (UniProt P01024 955-1303, C1010A)
T1 construct: complement C3, C3dg fragment, residues 955-1303; C1010A prevents thioester formation; a second change (printed A1153E) was made to reverse a mutation of the original gene, so that the natural residue stands at 1153; The His6 tag was moved from the N-terminus to the C-terminus (TEV-His6) and removed with TEV protease; residues of the TEV site probably remain at the C-terminus; also called C3dg …
Assay: crystal structure; three purified proteins mixed at a 1:1:1 molar ratio before crystallisation at 20 °C (PEG 3350, Hepes pH 7.5 or Tris pH 8.5); 3.18 Å; three heterotrimers in the asymmetric unit
Details: both partners purified

T1 sequence (P01024 955-1303 C1010A): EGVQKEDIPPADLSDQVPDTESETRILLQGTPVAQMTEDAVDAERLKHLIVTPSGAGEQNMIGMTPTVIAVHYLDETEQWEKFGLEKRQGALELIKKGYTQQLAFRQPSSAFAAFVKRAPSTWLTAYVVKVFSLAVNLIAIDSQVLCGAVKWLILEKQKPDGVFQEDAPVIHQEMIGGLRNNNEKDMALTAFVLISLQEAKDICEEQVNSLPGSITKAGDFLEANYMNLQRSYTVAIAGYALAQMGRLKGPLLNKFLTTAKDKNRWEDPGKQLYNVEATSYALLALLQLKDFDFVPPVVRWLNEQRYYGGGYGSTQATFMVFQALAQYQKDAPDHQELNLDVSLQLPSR

B1: C-terminal domains 19-20 of human factor H (FH19-20), wild type (domain or fragment)
chain: KDSTGKCGPPPPIDNGDITSFPLSVYAPASSVEYQCQNLYQLEGNKRITCRNGQWSEPPKCLHPCVISREIMENYNIALRWTAKQKLYSRTGESVEFVCKRGYRLSSRSHTLRTTCWDGKLEYPTCAKR
notes: human complement factor H, domains (SCRs) 19-20; also called C-terminus of human factor H
B1: binds.
